Source: patent US20260028391A1 (HUMABS BIOMED, published 2026)
Numbering of substitutions follows the chain as printed. In names and notes the source's numbering stands.

B1: MPK146 (antibody, V domains shown)
VH: QVQLVESGGGLVKPGGSLRLSCAASGFTFSGYYMIWIRQAPGKGLEWIASISGSSNYIDYADSVRGRFTISRDNARNILDLQMNSLRAGDTALYYCATEQVPSPGPFDLWGQGTLVTVSS
VL: QSVLTQPPSVSGAPGQRVTISCTGSNSNLGAGYDVHWYQQFPGTSPKLLIYRNTNRPSGVPDRFAGSKSGTSASLAITGLQAEDEADYYCQSYDRSLSGWVFGGGTKLTVL
B2: MPK130 (antibody, V domains shown)
VH: EVQLVESGGGLVKPGGSLTLSCEASGFSISGYYMIWVRQAPGKGLEWVSSISASDTYIDYAVSVQGRFTISRHNTKNSLYLQMSSLRVEDTGVYYCTREKVPSPGPFDCWGQGTLVTVSS
VL: QSVLTQPPSVSGAPGQRITISCTGTSSNIGAGYDVHWYQHLPGAAPRLLIYVNTNRPSGVPDRFSGARSGTSASLAITGLQAEDEADYYCQSYDRSLGGWAFGEGTKVTVL
B3: MPH12-v1 (VH C111/C112.2 variant of Tables 18 and 19) (antibody, V domains shown)
VH: QVQLVESGGGLVKPGGSLRLSCVASGFTFSGFYMKWIRQAPGKGLEWVSSISASGSYTNYADSVEGRFTVSRDNAKNSLFLLMSSLRAEDTAVYYCARGDSYSGASASHGEFFHKWGQGTLVTVSS
VL: QSVLTQPPSVSGAPGQRVTISCTGSDSNIGADFDVHWYQQLPGTAPKLLIYGNINRPSGVPDRFSGSRSGTSAFLAITRLQAEDEADYYCQSYDRSLHYVFGAGTKVTVL
B4: MPH12-v2 (VH C111/C112.2 variant of Tables 18 and 19) (antibody, V domains shown)
VH: B3 VH with S103A, S108A
VL: B3 VL
B5: MPH12-v28 (VH-FRGL-S63A/VL-S26A) (antibody, V domains shown)
VH: B3 VH with V23A, S63A, V70I, F80Y, L82Q, S84N, S103C, S108C
VL: B3 VL with S27A
notes: also called MPH12 VH-FRGL-S63A / MPH12 VL-S26A
B6: MPH12-v16 (VH-FRGL-S63A/VL-D25S) (antibody, V domains shown)
VH: B3 VH with V23A, S63A, V70I, F80Y, L82Q, S84N, S103C, S108C
VL: B3 VL with D26S
notes: also called MPH12 VH-FRGL-S63A / MPH12 VL-D25S
B7: RSD5-FR-GL-rIgG1 (antibody, V domains shown)
VH: QVQLVESGGGVVQPGRSLRLSCAASGFAFNNFAMHWVRQAPGKGLEWVAVVSYDGTSPYYADSVKGRFTISRDNSKNTLYLQMNSLRAEDTAVYYCARGLGSGSYSWIGYFYAMDVWGQGTTVTVSS
VL: QSALTQPASVSGSPGQSITISCTGTSSDVGGYVYVSWYQQHPGKAPKLMIYDVSNRPSGVSNRFSGSKSGNTASLTISGLQAEDEADYYCISYTDRNTVVFGGGTKLTVL
notes: Germline-reverted version of RSD5 (framework regions), recombinant IgG1; also called RSD5-FR-GL-rlgG1

Target: fusion glycoprotein of the RSV used in the neutralization assay of Example 1 (respiratory syncytial virus (strain not …))
Assay: cell-based or functional assay

| Binder | RSV Neutralization - IC50 |
| --- | --- |
| B1 | 0.0166 µg/mL |
| B2 | 0.0206 µg/mL |

Target: fusion glycoprotein of the MPV D280 used in the neutralization assay of Example 3 (metapneumovirus (strain ))
Assay: cell-based or functional assay

| Binder | MPV D280 Neutralization - IC50 |
| --- | --- |
| B1 | 0.0054 µg/mL |
| B2 | 0.0043 µg/mL |

Target: fusion glycoprotein (F) of MPV A1/6621 (metapneumovirus A1/6621)
Assay: cell-based or functional assay

| Binder | MPV IC50 (nM), neutralization of MPV A1/6621 |
| --- | --- |
| B3 | 5.87 nM |
| B4 | 0.552 nM |

Target: T1, DS-Cav1 RSV F (respiratory syncytial virus)
T1 construct: also called DC-VCav1
Assay: ELISA on DS-Cav1 RSV F

| Binder | EC50 |
| --- | --- |
| B5 | 0.0322 µg/mL |
| B6 | 0.0156 µg/mL |

Target: fusion glycoprotein (F) of the RSV used in the GFP-based neutralization assay of Table 23 (respiratory syncytial virus)
Assay: cell-based or functional assay

| Binder | RSV IC 50 (ng/mL), GFP-based in vitro neutralization |
| --- | --- |
| B5 | 59.4 ng/mL |
| B6 | 50.3 ng/mL |

Target: fusion glycoprotein (F) of the MPV (non-D280N) used in the GFP-based neutralization assay of Table 23 (metapneumovirus)
Assay: cell-based or functional assay

| Binder | MPV IC50 (ng/mL), GFP-based in vitro neutralization |
| --- | --- |
| B5 | 26.3 ng/mL |
| B6 | 26.8 ng/mL |

Target: fusion glycoprotein (F) of RSV A GFP (Tables 41 and 42) (respiratory syncytial virus A)
Assay: cell-based or functional assay

| Binder | IC50 (ng/ml), RSV A GFP neutralization |
| --- | --- |
| B7 | 1.27 ng/mL |

Target: fusion glycoprotein (F) of RSV B GFP (Tables 41 and 42) (respiratory syncytial virus B)
Assay: cell-based or functional assay

| Binder | IC50 (ng/ml), RSV B GFP neutralization |
| --- | --- |
| B7 | 1.14 ng/mL |

Target: fusion glycoprotein (F) of MPV A GFP (Tables 41 and 43) (metapneumovirus A)
Assay: cell-based or functional assay

| Binder | IC50 (ng/ml), MPV A GFP neutralization |
| --- | --- |
| B7 | > 2000 ng/mL |

Target: DS-Cav1 RSV F (respiratory syncytial virus (RSV); …, UniProt P13843 26-513)
Assay: ELISA on RSV-F Ds-Cav1, 1 ug/ml

| Binder | EC50 (read off the curve) |
| --- | --- |
| B3 | ~0.1 µg/mL |
| B4 | ~0.1 µg/mL |

Target: T2, MPV fusion glycoprotein without the D280N mutation (MPV-F D280) (metapneumovirus)
T2 construct: also called MPV F Non-D280N; MPV-F wt
Assay: biolayer interferometry (BLI), rIgG1 with M428L/N434S

| Binder | Kd |
| --- | --- |
| B5 | 0.045 nM |
| B6 | 0.038 nM |

Target: T3, MPV fusion glycoprotein with the D280N mutation (MPV-F N280) (metapneumovirus)
T3 construct: also called MPV F D280N; MPV-F D280N
Assay: as above

| Binder | Kd |
| --- | --- |
| B5 | 0.74 nM |
| B6 | 0.54 nM |

Target: RSV fusion glycoprotein (RSV-F) (respiratory syncytial virus)
Assay: as above

| Binder | Kd |
| --- | --- |
| B5 | 0.38 nM |
| B6 | 0.41 nM |

Target: biot-RSV-F wt (respiratory syncytial virus (RSV))
Assay: BLI (Octet), biotinylated F on SA sensors, mAb 5 µg/ml

| Binder | Kd |
| --- | --- |
| B7 | 1.46 nM |
